For one assay, the system named is patients' plasma IgE. In words: Direct binding assay of IgE to Cry j I, Cry j II and recombinant Cry j II (Example 18). The arrangement: species or system human. As for the experimental part: Costar assay plates were coated with Cry j I or Cry j II at 2 μg/mL or recombinant Cry j II preparation at 10 μg/mL (approximately 20% pure) in a volume of 50 μL overnight at 4° C. The coating antigens were removed and the wells were blocked with 0.5% gelatin, PVP (polyvinyl pyrolidine) 1 mg/mL in PBS, 200 μL/well for 2 hours at room temperature. The anti-Cry j I monoclonal antibody, 4B11, was serially diluted in PBS-Tween 20 starting at a 1:1000 dilution. The human plasma were serially diluted in PBS-Tween at a starting dilution of 1:2. For this set 23 plasma samples from patients symptomatic for Japanese cedar pollen allergy chosen for IgE binding analysis. The first antibody incubation proceeded overnight at 4° C. Following three washes with PBS-Tween the second antibodies were added (biotinylated goat anti-mouse Ig or goat anti-human IgE both at 1:2000) and incubated for two hours at room temperature at 100 μL/well. After washing 3 times, […]. This solution was removed and streptavidin-HRPO diluted to 1:10,000, was added at 100 μL/well. The color was allowed to develop for 2-5 minutes. The reaction was stopped by the addition of 100 μL/well of 1M phosphoric acid. Plates were read on a Microplate IL310 Autoreader (Biotek Instruments, Winooski, Vt.) with a 450 nm filter. The absorbance levels of duplicate wells were averaged. A positive binding result, indicated by a plus sign is determined to be a reading of two-fold or greater above background (no first antibody) at the second dilution of plasma ([…]).

In the next assay the test system is Cry j I reactive T cells. The assay is described as follows: T cell proliferation assay, Cry j I primed T cell lines (Example 6). Format: cell-based, human. As for the experimental part: Viable cells were purified by LSM centrifugation and cultured in complete medium supplemented with 5 units recombinant human IL-2/ml and 5 units recombinant human IL-4/ml for up to three weeks until the cells no longer responded to lymphokines and were considered “rested”. The ability of the T cells to proliferate to selected peptides, recombinant Cry j I (rCry j I), purified native Cry j I, or recombinant Amb aI.1 (rAmb aI.1) or a positive control, phyto-hemaglutinin (PHA) was then assessed. For assay, 2×10^4 rested cells were restimulated in the presence of 2×10^4 autologous Epstein-Barr virus (EBV)-transformed B cells (prepared as described below) (gamma-irradiated with 25,000 RADS) with 2-50 μg/ml of selected peptides, Cry j I, purified native Cry j I or rAmb a I.1 or PHA, in a volume of 200 μl complete medium in duplicate or triplicate wells in 96-well round bottom plates for 2-4 days. […] Each well then received 1 μCi tritiated thymidine for 16-20 hours. The counts incorporated were collected onto glass fiber filter mats and processed for liquid scintillation counting. […] The titrations were used to optimize the dose of peptides in T cell assays. The maximum response in a titration of each peptide is expressed as the stimulation index (S.I.). The S.I. is the counts per minute (CPM) incorporated by cells in response to peptide, divided by the CPM incorporated by cells in medium only.
The above procedure was followed with a number of other patients. […] The bars represent the positivity index. Above each bar is the percent of positive responses with an S.I. of at least two to the peptide or protein in the group of patients tested. In parenthesis above each bar are the mean stimulation indices for each peptide or protein for the group of patients tested.
Autologous EBV-transformed cell lines were y-irradiated with 25,000 Rad and used as antigen presenting cells in secondary proliferation assays and secondary bulk stimulations. These EBV-transformed cell lines were made by incubating 5×10^6 PBL with 1 ml of B-59/8 Marmoset cell line (ATCC CRL1612, American Type Culture Collection, Rockville, Md.) conditioned medium in the presence of 1 μg/ml phorbol 12-myristate 13-acetate (PMA) at 37° C. for 60 minutes in 12×75 mm polypropylene round-bottom Falcon snap cap tubes (Becton Dickinson Labware, Lincoln Park, N.J.). These cells were then diluted to 1.25×10^6 cells/ml in RPMI-1640 as described above except supplemented with 10% heat-inactivated fetal bovine serum and cultured in 200 μl aliquots in flat bottom culture plates until visible colonies were detected. They were then transferred to larger wells until the cell lines were established.

A further assay concerns allergic patient IgE. The assay is described as follows: Allergic sera titration of purified subfractions of Cry j I (FIG. 3). Format: binding, human. Particulars: pool of fifteen allergic patient plasma. The source says:
In summary, three Cry j I isoforms of different molecular weight were purified from pollen extract. The molecular weights estimated by SDS-PAGE ranged from 40-35 kD under both reducing and non-reducing conditions. The isoelectric point of these isoforms is approximately 9.5-8.6, with an average pI of 9.0. The N-terminal 20 amino acid sequence was the same in these 3 bands and was identical to previously published Cry j I sequence (Taniai et al, supra). The 3 isoforms are all recognized by monoclonal antibody CBF2 as shown in the allergic sera titration of different purified subfractions of Cry j I using a pool of fifteen allergic patient plasma. […] The difference in molecular weight and isoelectric point in these isoforms might in part be due to post-translational modification, e.g. glycosylation, phosphorylation or lipid content. The possibility that these different isoforms might be due to protease degradation cannot be ruled out at present even though it is unlikely due to the fact that four different protease inhibitors were used during extraction and purification. The other possibility could be due to polymorphism in the gene or alternate splicing in the mRNA though only one major form of Cry j I protein has been detected in cDNA cloning studies (see Example 4).

A further assay deals with IgE antibodies. Particulars: Sakaguchi (1990); cited from earlier work.
For a further assay, the system named is human basophil. The assay is described as follows: Histamine release assay. Format: cell-based. Particulars: one Japanese cedar pollen allergic patient, FIG. 11. As for the experimental part: To determine whether a peptide which binds IgE results in the release of mediators, a histamine release assay can be performed using standard reagents and protocols obtained for example, from Amac, Inc. (Westbrook, Me.). Briefly, a buffered solution of a peptide to be tested is combined with an equal volume of whole heparinized blood from an allergic subject. After mixing and incubation, the cells are pelleted and the supernatants are processed an analyzed using a radioimmunoassay to determine the amount of histamine released.
A histamine release assay was performed on one Japanese cedar pollen allergic patient using Japanese cedar pollen SPE, purified native Cry j I and rCry j I as the added antigens. This assay is a measure of IgE reactivity through human basophil mediator release. […] Two possible explanations for this release by the rCry j I are: 1) specific reactivity with a very low proportion of the anti-Cry j I IgE capable of recognizing the recombinant form of Cry j I, or 2) non-specific release caused by low abundance of bacterial contaminants observed only at the highest antigen concentration. […] In addition, the data shown are from single data points at each protein concentration.

B1: purified native Cry j I: major allergen of Japanese cedar pollen, biochemically purified in the native form (protein)
chain: DNPIDSCWRGDSNWAQNRMKLADCAVGFGSSTMGGKGGDLYTVTNSDDDPVNPAPGTLRYGATRDRPLWIIFSGNMNIKLKMPMYIAGYKTFDGRGAQVYIGNGGPCVFIKRVSNVIIHGLYLYGCSTSVLGNVLINESFGVEPVHPQDGDALTLRTATNIWIDHNSFSNSSDGLVDVTLTSTGVTISNNLFFNHHKVMLLGHDDAYSDDKSMKVTVAFNQFGPNCGQRMPRARYGLVHVANNNYDPWTIYAIGGSSNPTILSEGNSFTAPNESYKKQVTIRIGCKTSSSCSNWVWQSTQDVFYNGAYFVSSGKYEGGNIYTKKEAFNVENGNATPQLTKNAGVLTCSLSKRC
B1: the “plasma IgE binding response” value in the assay with patients' plasma IgE (patient #1034) is “no detectable binding”; with patients' plasma IgE (patient plasma samples, FIGS. 31-33), “variable response”. In addition, the “T cell line response” value in the assay with Cry j I reactive T cells (panel of twenty-five patients, FIG. 14) was “All twenty-five T cell lines responded”. For the same molecule, the “T cell proliferative response” value with Cry j I reactive T cells (patient #999, FIG. 12) is listed as “responds well”. The “IgE binding of purified isoforms” value in the assay on allergic patient IgE is “bind allergic patient IgE”. Also, the “allergic patients with IgE that only reacted with this allergen” value in the assay with IgE antibodies is recorded as 29%. In addition, in the assay with human basophil, the histamine release entry is listed as “strong histamine release”.

(Values after patent US8540999B2, “Allergenic proteins and peptides from Japanese cedar pollen” (Merck Patent GmbH, priority 1991, dated 2013).)
